Test results as given in patent EP2646050B1 (mAB-Factory GmbH, dated 2016).

Columns and labels:
Assay in all cases: peptide SPOT membrane
[1] = target: 15mer peptide 56 of H5 (A/Anhui/1/2005) (Influenza A virus A/Anhui/1/2005 (H5N1))
[2] = target: 15mer peptide 55 of H5 (A/Anhui/1/2005) (Influenza A virus A/Anhui/1/2005 (H5N1))
[3] = target: 15mer peptide 57 of H5 (A/Anhui/1/2005) (Influenza A virus A/Anhui/1/2005 (H5N1))

Measured: binding result

B1: scFv-murine IgG1 Fc fusion of clone 8 (JM6_SC-D3) (Fc fusion)
chain: MAAVTLDESGGGLQKPGGGLSLVCKASGFPFSSYSMQWVRQAPGKGLEWVAGIGNAGSYTGYGAAVKGRATISRDNGQSTVRLQLNNLRAEDTGTYYCAKSAYAGSCAGCVDSIDAWGHGTEVMVSSGSASAPKLEEGEFSEARVALTQPSSVSANPGETVKITCSGDDSWYGWYQQKSPGSAPVTVIYYNNNRPSDIPLRFSGSTSGSTSTLTITGVQADDEAVYFCGSWDRSSGAGIFGAGTTLTVLGAA
no binding: [1] | [2] | [3]
